Test results: patent publication US20140274782A1, “AFFINITY REAGENTS AND METHODS FOR DETECTION, PURIFICATION, AND PROTEOMIC ANALYSIS OF METHYLATED PROTEINS” (The Board of Trustees of the Leland Stanford Junior …, priority 2013, published 2014)

T1: G9a and GLP (Homo sapiens, UniProt Q96KQ7+Q9H9B1)
T1 sequence (Q96KQ7 2-1210 limits assumed): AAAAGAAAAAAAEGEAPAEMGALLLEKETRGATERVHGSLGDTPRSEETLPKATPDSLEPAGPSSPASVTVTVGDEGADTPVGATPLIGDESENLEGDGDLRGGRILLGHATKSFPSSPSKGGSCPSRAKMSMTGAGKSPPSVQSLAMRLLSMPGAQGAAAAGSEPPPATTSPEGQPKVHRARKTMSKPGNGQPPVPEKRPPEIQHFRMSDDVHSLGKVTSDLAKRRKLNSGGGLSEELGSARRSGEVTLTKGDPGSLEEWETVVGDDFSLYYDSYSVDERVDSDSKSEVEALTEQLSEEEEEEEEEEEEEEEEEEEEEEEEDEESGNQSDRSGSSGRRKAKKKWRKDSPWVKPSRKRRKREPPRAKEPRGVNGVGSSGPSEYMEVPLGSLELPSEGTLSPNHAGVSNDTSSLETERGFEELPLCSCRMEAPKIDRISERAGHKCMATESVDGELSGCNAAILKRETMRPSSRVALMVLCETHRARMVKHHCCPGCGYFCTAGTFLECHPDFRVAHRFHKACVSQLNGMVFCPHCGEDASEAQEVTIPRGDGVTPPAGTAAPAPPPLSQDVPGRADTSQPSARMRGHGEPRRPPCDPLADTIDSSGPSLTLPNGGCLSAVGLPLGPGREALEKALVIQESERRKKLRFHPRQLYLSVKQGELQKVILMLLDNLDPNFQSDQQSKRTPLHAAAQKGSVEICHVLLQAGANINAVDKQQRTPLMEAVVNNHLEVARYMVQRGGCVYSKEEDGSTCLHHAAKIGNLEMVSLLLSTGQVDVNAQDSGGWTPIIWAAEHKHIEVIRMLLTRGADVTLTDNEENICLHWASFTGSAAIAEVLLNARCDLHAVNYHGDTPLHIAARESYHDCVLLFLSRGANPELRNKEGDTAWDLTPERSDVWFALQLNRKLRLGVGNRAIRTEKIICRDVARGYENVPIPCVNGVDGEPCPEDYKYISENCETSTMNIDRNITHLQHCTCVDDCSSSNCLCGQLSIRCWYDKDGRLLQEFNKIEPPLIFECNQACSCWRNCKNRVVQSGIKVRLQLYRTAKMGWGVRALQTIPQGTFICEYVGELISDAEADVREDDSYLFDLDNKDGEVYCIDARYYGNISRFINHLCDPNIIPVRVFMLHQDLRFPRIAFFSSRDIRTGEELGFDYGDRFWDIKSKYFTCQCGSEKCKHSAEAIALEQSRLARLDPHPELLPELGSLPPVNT
T1 sequence (Q9H9B1 2-1298 limits assumed): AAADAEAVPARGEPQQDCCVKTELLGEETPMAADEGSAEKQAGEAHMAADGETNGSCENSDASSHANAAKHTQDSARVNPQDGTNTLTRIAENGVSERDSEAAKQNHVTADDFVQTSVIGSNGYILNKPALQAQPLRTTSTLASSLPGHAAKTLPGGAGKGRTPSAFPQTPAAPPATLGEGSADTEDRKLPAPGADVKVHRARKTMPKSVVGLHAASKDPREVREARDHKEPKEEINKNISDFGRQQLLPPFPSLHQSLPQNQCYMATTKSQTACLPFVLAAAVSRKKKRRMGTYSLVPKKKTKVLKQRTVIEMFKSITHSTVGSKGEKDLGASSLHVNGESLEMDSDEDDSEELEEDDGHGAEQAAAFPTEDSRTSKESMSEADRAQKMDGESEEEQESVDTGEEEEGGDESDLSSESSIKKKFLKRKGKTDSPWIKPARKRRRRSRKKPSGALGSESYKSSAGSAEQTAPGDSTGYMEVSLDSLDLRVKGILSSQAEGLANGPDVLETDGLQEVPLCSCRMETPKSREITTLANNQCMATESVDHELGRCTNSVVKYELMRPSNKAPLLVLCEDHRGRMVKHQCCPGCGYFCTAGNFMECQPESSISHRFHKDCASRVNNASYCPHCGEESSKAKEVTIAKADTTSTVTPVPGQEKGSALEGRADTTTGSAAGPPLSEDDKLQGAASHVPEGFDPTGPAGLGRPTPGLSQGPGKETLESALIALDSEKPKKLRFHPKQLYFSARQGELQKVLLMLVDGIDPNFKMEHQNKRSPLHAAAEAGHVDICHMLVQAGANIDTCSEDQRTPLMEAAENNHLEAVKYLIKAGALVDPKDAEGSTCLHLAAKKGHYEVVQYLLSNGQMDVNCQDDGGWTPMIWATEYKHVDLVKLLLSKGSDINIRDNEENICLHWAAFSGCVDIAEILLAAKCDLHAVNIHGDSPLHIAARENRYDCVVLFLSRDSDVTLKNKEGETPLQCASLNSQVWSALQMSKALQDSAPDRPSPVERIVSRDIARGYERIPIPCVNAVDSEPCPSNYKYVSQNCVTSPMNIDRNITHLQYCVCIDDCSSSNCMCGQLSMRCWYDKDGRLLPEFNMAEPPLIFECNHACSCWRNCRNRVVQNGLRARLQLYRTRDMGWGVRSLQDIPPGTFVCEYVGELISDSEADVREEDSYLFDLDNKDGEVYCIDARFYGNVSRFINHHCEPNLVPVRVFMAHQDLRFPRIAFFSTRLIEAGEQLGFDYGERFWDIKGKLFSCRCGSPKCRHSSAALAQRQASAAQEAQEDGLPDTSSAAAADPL


Assays:
3×MBT domain of L3MBTL1 = test: Triple SILAC pull-down, 3xMBT/3xMBTD355N ratio (cytoplasmic, nuclear and chromatin fractions of 293T cells); format: binding, human; details: SILAC ratio, pull-down 3xMBT vs 3xMBTD355N; for 3xMBT/D355N UNC Heavy: experiment with UNC0638 in heavy SILAC media; for 3xMBT/D355N UNC Light: experiment with UNC0638 in light SILAC media;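 on all read-outs here: proteins quantified with MaxQuant, requiring at least two unique peptides and quantification in both label directions, normalized to the mean of proteins from a digested loading control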
G9a and GLP = molecular target: T1, G9a and GLP; test: Triple SILAC pull-down after UNC0638 treatment of 293T cells, DMSO/UNC0638 ratio of protein captured by 3×MBT; format: cell-based; set-up: endogenous in cells; host or cells: HEK 293T; details: for Relative to UNC0638 UNC Heavy / Relative to UNC0638 UNC Light: SILAC ratio DMSO/UNC0638 of protein pulled down with 3xMBT; for Relative to UNC0638 UNC Heavy: UNC0638 in heavy SILAC media; for Relative to UNC0638 UNC Light: UNC0638 in light SILAC media; for Relative to UNC0638 Average: average of UNC Light and UNC Heavy experiments;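 on all read-outs here: mass spectrometry (Q-Exactive) SILAC quantitation, DMSO/UNC0638 ratio computed after subtracting 3×MBTD355N mutant pull-down background, only proteins with at least twofold 3×MBT over mutant signal considered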

Molecule | Relative to UNC0638 UNC Heavy (G9a and GLP) [log base 2] | Relative to UNC0638 UNC Light (G9a and GLP) [log base 2] | Relative to UNC0638 Average (G9a and GLP) [log base 2] | Candidate G9a/GLP target (G9a and GLP; reduced association with 3xMBT after UNC0638 treatment) | 3xMBT/D355N UNC Heavy (3×MBT domain of L3MBTL1) [log base 2] | 3xMBT/D355N UNC Light (3×MBT domain of L3MBTL1) [log base 2]
RBM26 (protein, UniProt Q5T8P6 1-1007, looked up) RNA-binding protein 26: MVSKMIIENFEALKSWLSKTLEPICDADPSALAKYVLALVKKDKSEKELKALCIDQLDVFLQKETQIFVEKLFDAVNTKSYLPPPEQPSSGSLKVEFFPHQEKDIKKEEITKEEEREKKFSRRLNHSPPQSSSRYRENRSRDERKKDDRSRKRDYDRNPPRRDSYRDRYNRRRGRSRSYSRSRSRSWSKERLRERDRDRSRTRSRSRTRSRERDLVKPKYDLDRTDPLENNYTPVSSVPSISSGHYPVPTLSSTITVIAPTHHGNNTTESWSEFHEDQVDHNSYVRPPMPKKRCRDYDEKGFCMRGDMCPFDHGSDPVVVEDVNLPGMLPFPAQPPVVEGPPPPGLPPPPPILTPPPVNLRPPVPPPGPLPPSLPPVTGPPPPLPPLQPSGMDAPPNSATSSVPTVVTTGIHHQPPPAPPSLFTADTYDTDGYNPEAPSITNTSRPMYRHRVHAQRPNLIGLTSGDMDLPPREKPPNKSSMRIVVDSESRKRTIGSGEPGVPTKKTWFDKPNFNRTNSPGFQKKVQFGNENTKLELRKVPPELNNISKLNEHFSRFGTLVNLQVAYNGDPEGALIQFATYEEAKKAISSTEAVLNNRFIKVYWHREGSTQQLQTTSPKVMQPLVQQPILPVVKQSVKERLGPVPSSTIEPAEAQSASSDLPQNVTKLSVKDRLGFVSKPSVSATEKVLSTSTGLTKTVYNPAALKAAQKTLLVSTSAVDNNEAQKKKQEALKLQQDVRKRKQEILEKHIETQKMLISKLEKNKTMKSEDKAEIMKTLEVLTKNITKLKDEVKAASPGRCLPKSIKTKTQMQKELLDTELDLYKKMQAGEEVTELRRKYTELQLEAAKRGILSSGRGRGIHSRGRGAVHGRGRGRGRGRGVPGHAVVDHRPRALEISAFTESDREDLLPHFAQYGEIEDCQIDDSSLHAVITFKTRAEAEAAAVHGARFKGQDLKLAWNKPVTNISAVETEEVEPDEEEFQEESLVDDSLLQDDDEEEEDNESRSWRR | 0.21 | 0.08 | 0.14 | – | 2.44 | 2.00
U2AF1 (protein, UniProt Q01081 2-240, looked up) Splicing factor U2AF 35 kDa …: AEYLASIFGTEKDKVNCSFYFKIGACRHGDRCSRLHNKPTFSQTIALLNIYRNPQNSSQSADGLRCAVSDVEMQEHYDEFFEEVFTEMEEKYGEVEEMNVCDNLGDHLVGNVYVKFRREEDAEKAVIDLNNRWFNGQPIHAELSPVTDFREACCRQYEMGECTRGGFCNFMHLKPISRELRRELYGRRRKKHRSRSRSRERRSRSRDRGRGGGGGGGGGGGGRERDRRRSRDRERSGRF | 0.20 | 0.08 | 0.14 | – | 3.19 | 2.52

Now from value to molecule, other results behind:

Relative to UNC0638 UNC Heavy (G9a and GLP) [log base 2] | Relative to UNC0638 UNC Light (G9a and GLP) [log base 2] | Relative to UNC0638 Average (G9a and GLP) [log base 2] | Candidate G9a/GLP target (G9a and GLP; reduced association with 3xMBT after UNC0638 treatment) | Molecule | 3xMBT/D355N UNC Heavy (3×MBT domain of L3MBTL1) [log base 2] | 3xMBT/D355N UNC Light (3×MBT domain of L3MBTL1) [log base 2]
0.09 | 0.20 | 0.14 | – | DENR (protein, UniProt O43583 2-198, looked up) Density-regulated protein: AADISESSGADCKGDPRNSAKLDADYPLRVLYCGVCSLPTEYCEYMPDVAKCRQWLEKNFPNEFAKLTVENSPKQEAGISEGQGTAGEEEEKKKQKRGGRGQIKQKKKTVPQKVTIAKIPRAKKKYVTRVCGLATFEIDLKEAQRFFAQKFSCGASVTGEDEIIIQGDFTDDIIDVIQEKWPEVDDDSIEDLGEVKK | 2.50 | 3.36
0.69 | 0.48 | 0.59 | ✓ | DCAF7 (protein, UniProt P61962 1-342, looked up) DDB1- and CUL4-associated …: MSLHGKRKEIYKYEAPWTVYAMNWSVRPDKRFRLALGSFVEEYNNKVQLVGLDEESSEFICRNTFDHPYPTTKLMWIPDTKGVYPDLLATSGDYLRVWRVGETETRLECLLNNNKNSDFCAPLTSFDWNEVDPYLLGTSSIDTTCTIWGLETGQVLGRVNLVSGHVKTQLIAHDKEVYDIAFSRAGGGRDMFASVGADGSVRMFDLRHLEHSTIIYEDPQHHPLLRLCWNKQDPNYLATMAMDGMEVVILDVRVPCTPVARLNNHRACVNGIAWAPHSSCHICTAADDHQALIWDIQQMPRAIEDPILAYTAEGEINNVQWASTQPDWIAICYNNCLEILRV | 1.67 | 1.31
